T1: Human GPR7 (human, UniProt P48145 1-328)
T1 construct: Full-length receptor expressed in CHO dhfr- cells; also called Human GPR7 receptor; GPR7 receptor
T1 sequence: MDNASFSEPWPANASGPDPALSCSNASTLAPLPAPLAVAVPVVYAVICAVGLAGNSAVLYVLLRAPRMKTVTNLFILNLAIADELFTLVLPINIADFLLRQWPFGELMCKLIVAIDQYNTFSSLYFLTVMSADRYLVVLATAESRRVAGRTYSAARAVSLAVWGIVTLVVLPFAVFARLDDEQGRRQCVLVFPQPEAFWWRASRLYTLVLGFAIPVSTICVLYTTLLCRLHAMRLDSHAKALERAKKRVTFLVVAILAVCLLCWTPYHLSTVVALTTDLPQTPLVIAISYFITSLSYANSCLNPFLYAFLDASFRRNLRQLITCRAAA

T2: TGR26, rat-derived G protein-coupled receptor protein (rat, UniProt Q56UD9 1-329)
T2 construct: Expressed in CHO dhfr- cells from pAK-rGPR7; also called rat TGR26; TGR26 receptor
T2 sequence: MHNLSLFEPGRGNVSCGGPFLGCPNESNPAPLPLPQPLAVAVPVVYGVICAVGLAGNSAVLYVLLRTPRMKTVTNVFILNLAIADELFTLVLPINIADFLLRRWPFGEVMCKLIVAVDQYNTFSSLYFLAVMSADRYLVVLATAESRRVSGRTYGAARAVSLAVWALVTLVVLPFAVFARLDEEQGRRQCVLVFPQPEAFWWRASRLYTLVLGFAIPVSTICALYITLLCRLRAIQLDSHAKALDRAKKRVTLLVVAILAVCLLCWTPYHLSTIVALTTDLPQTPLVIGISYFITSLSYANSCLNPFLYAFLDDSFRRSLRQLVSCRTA

B1: human homologue of GPR8 ligand peptide consisting of 30 residues (peptide)
peptide: WYKHVASPRYHTVGRAAGLLMGLRRSPYLW
notes: also called hGPR8L(1-30); Human GPR8 ligand (1-30)
B2: Human GPR8 ligand (4-23) (peptide)
peptide: HVASPRYHTVGRAAGLLMGL
notes: also called hGPR8L(4-23)
B3: Human GPR8 ligand (1-18) (peptide)
peptide: WYKHVASPRYHTVGRAAG
notes: also called hGPR8L(1-18)
B4: Human GPR8 ligand (2-23) (peptide)
peptide: YKHVASPRYHTVGRAAGLLMGL
notes: also called hGPR8L(2-23)
B5: [N^α-Acetyl-Trp^1]-Human GPR8 ligand (1-23) (peptide)
peptide: XYKHVASPRYHTVGRAAGLLMGL
modifications: N-alpha-acetyl on Trp 1
notes: also called Ac-hGPR8L(1-23)
B6: Fmoc-added Human GPR8L (1-23) (peptide)
peptide: XYKHVASPRYHTVGRAAGLLMGL
modifications: N-terminal Fmoc (N-9-fluorenylmethoxycarbonyl) on Trp 1
notes: also called Fmoc-hGPR8L(1-23); Human GPR8 ligand (1-23) modified by Fmoc
B7: [D-Trp^1]-Human GPR8 ligand (1-23) (peptide)
peptide: XYKHVASPRYHTVGRAAGLLMGL
modifications: D-Trp at position 1
notes: also called [D-Trp^1]-hGPR8L(1-23)
B8: porcine GPR8 ligand (1-23) (peptide)
peptide: WYKHTASPRYHTVGRAAGLLMGL
notes: also called pGPR8L(1-23); porcine homologue of GPR8 ligand peptide

Each binder was assayed against T1, Human GPR7 (assay: competition with [125I-Tyr10]-hGPR8L(1-23), membrane fraction of GPR7 expressing CHO cells).

Binder | IC50 [nM]
B1 | 0.025
B2 | 1200
B3 | 2400
B4 | 140
B5 | 0.077
B6 | 0.14
B7 | 0.63
B8 | 0.066

What follows are binders tested against T3, Human GPR8 receptor protein (human, UniProt P48146 1-333) (assay: competition with [125I-Tyr10]-hGPR8L(1-23), membrane fraction of GPR8 expressing CHO cells).
T3 construct: Full-length receptor expressed in CHO dhfr- cells (CHO/GPR8)
T3 sequence (P48146 whole entry): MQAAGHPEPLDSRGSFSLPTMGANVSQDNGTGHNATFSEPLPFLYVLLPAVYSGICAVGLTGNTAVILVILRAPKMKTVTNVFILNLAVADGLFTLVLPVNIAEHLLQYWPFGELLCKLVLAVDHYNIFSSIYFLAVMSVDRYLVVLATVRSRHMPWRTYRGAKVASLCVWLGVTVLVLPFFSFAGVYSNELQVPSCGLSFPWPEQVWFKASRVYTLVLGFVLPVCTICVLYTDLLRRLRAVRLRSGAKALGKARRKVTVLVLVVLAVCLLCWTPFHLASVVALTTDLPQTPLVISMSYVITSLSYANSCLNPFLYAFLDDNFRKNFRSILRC
Procedure: Cell membrane fraction prepared from Human GPR8 expressing cells was diluted to various concentration with assay buffer (25 mM Tris-HCl, 5 mM EDTA, 0.05% CHAPS (3-[(3-Cholamidopropyl) Dimethyl-Ammonio]-1-Propanesulfonate), 0.1% BSA, 0.25 mM PMSF, 1 μg/ml Pepstatin, 20 μg/ml Leupeptin, pH7.4), and 200 μl each of the diluent was dispensed into polypropilene test tube (Falcon 2053). In order to determine an amount of maximum binding (TB), […] of DMSO and 2 μl of 7 nM [¹²⁵I-Tyr²]-hGPR8L(1-23) or [¹²⁵I-Tyr¹⁰]-hGPR8L(1-23) were added to the membrane fraction solution. Further, in order to determine a non-specific binding (NSB), 2 μt of 100 μM hGPR8L(1-23)/DMSO solution and 2 μl of 7 nM [¹²⁵I]-Tyr²]-hGPR8L(1-23) or [¹²⁵I-Tyr¹⁰]-hGPR8L(1-23) were added to the membrane fraction solution. The reaction was done at 25° C. for 60 minutes, and the reaction mixture was filtered by suction filtration using Whatman glassfilter (GF-F) treated with polyethyleneimine. After filtration, a radioactivity remaining on the filter was counted using γ-counter, and an amount of specific binding (SB) was estimated by subtracting an amount of non-specific binding from an amount of maximum binding. Since the specific binding in the case where [¹²⁵I-Tyr¹⁰]-hGPR8L(1-23) was used, was twice as much as that in the case where [¹²⁵1-Tyr²]-hGPR8L(1-23) was used, in practice, [¹²⁵I-Tyr¹⁰]-hGPR8L(1-23) was used in the assay. When the concentration of membrane fraction was changed, a specific binding of [¹²⁵I-Tyr¹⁰]-hGPR8L(1-23) was perceived depending on the concentration of membrane fraction.
A receptor binding activity of human- and porcine-homologue derivatives of GPR8 ligand peptide, wherein the synthesis method has been described in the specification, was measured using a membrane fraction of GPR8 expressing CHO cells and [¹²⁵-Tyr¹⁰]-hGPR8L(1-23) by the method described in Reference Example 43.

Binder | IC50 [nM]
B2 | 1400
B3 | 2700
B4 | 160
B5 | 2.4
B6 | 0.2
B7 | 0.82
B8 | 0.38

These binders were tested against T3, Human GPR8 receptor protein (assay: cell-based or functional assay).

Binder | Promoting activity to GTPγS binding (EC50 nM) [nM]
B2 | 6700
B3 | > 10000
B4 | 3900
B5 | 14
B6 | 240
B7 | 7.1
B8 | 1.5

These binders were tested against T1, Human GPR7 (assay: cell-based or functional assay).

Binder | inhibition of intracellular cAMP production (IC50) [nM]
B1 | 0.13

Target: T1, Human GPR7
Experiment: cell-based or functional assay
Remark: another data set of the same source

Binder | Promoting activity to GTPγS binding (EC50 nM) [nM]
B1 | 0.67
B2 | > 10000
B3 | 6200
B4 | 7410
B5 | 1.5
B6 | 6.6
B7 | 2.3
B8 | 0.35

What follows are binders tested against T2, TGR26, rat-derived G protein-coupled … (assay: competition with [125I-Tyr10]-hGPR8L(1-23), membrane fraction of TGR26 expressing CHO cells).
Procedure: Cell membrane fraction prepared from TGR26 expressing cells was diluted to various concentration with assay buffer (25 mM Tris-HCl, 5 mM EDTA, 0.05% CHAPS (3-[(3-Cholamidopropyl) Dimethyl-Ammonio]-1-Propanesulfonate), 0.1% BSA, 0.5 mM PMSF, 1 μg/ml Pepstatin, 20 μg/ml Leupeptin, 4 μg/ml E-64, pH7.4), and 200 μl each of the diluent was dispensed into polypropilene test tube (Falcon 2053). In order to determine an amount of maximum binding, 2 μl of DMSO and 2 μl of 7 nM [¹²⁵-Tyr¹⁰]-hGPR8L(1-23) were added to the membrane fraction solution. Further, in order to determine a non-specific binding, 2 μl of 100 μM hGPR8L(1-23)/DMSO solution and 2 μl of 7 nM [¹²⁵I]-Tyr¹⁰]-hGPR8L(1-23) were added to the membrane fraction solution. The reaction was done at 25° C. for 75 minutes, and the reaction mixture was filtered by suction filtration using Whatman glassfilter (GF-F) treated with polyethyleneimine. In addition, the filter was washed twice with 1.5 ml of washing buffer (25 mM Tris-HCl, 5 mM EDTA, 0.05% CHAPS, 0.1% BSA, pH7.4). After filtration, a radioactivity remaining on the filter was counted using γ-counter, and an amount of specific binding was estimated by subtracting an amount of non-specific binding from an amount of maximum binding.
A receptor binding activity of human- and porcine-homologue derivatives of GPR8 ligand peptide obtained in the reference examples was measured using a membrane fraction of TGR26 expressing CHO cells and [¹²⁵I-Tyr¹⁰]-hGPR8L(1-23) by the method described in Reference Example 73.

Binder | IC50 [nM]
B2 | 2000
B3 | 760
B4 | 240
B5 | 0.27
B6 | 0.23
B7 | 1.3
B8 | 0.12
